Laboratory results taken from patent US20200297834A1.

Legend:
[1] = biological target: VEEV capsid (of VEEV TC-83, in infected Vero cells) (Venezuelan equine encephalitis virus, strain TC-83) (UniProt P05674); experiment: confocal microscopy, line scan of z-stack, VEEV TC-83 infected Vero cells, 16 h
[2] = biological target: VEEV E2 (of VEEV TC-83, in infected Vero cells) (Venezuelan equine encephalitis virus, strain TC-83) (UniProt P05674); experiment: as above

Row | Substance | Pearson's correlation (co-localization) [1] | Pearson's correlation (co-localization) [2]
1 | PKCδ (endogenous, Vero cells) | 0.771 | 
2 | PKCδ (endogenous, Vero cells) (enzyme) |  | 0.581
